Data from US20240026022A1 (OSSIANIX, published 2024).

B1: TXP1 (VNAR-txp1 fused to the N-terminus of human IgG1 Fc with attenuated effector function) (Fc fusion)
VNAR: ARVDQTPQTITKETGESLTINCVLRDSNCALSSTYWYRKKSGSTNEENISKGGRYVETVNSGSKSFSLKINDLTVEDSGTYRCNVVGTWCMSWRDVYGGGTAVTVNA
notes: Bivalent VNAR-hFc, VNAR at the N-terminus of hFc IgG1; also called VNAR-txp1-hFc; VNAR antibody TXP1; not shown: Human IgG1 Fc with AEF mutations (E233P/L234V/L235A/ΔG236+A327G/A330S/P331S), and any hinge or linker at the junction
B2: TXP1D4 (deimmunized variant VNAR-r2d4 fused to human IgG1 Fc) (Fc fusion)
VNAR: ARVDQTPQTATKETGESLTINCVLRDSNCALSSTYWYRKKSGSTNEENISKGGRKYVETVESGSKSFSLKINDLTVEDSGTYRCNVVGTWCMSWRDVSGDGTVVTVNA
notes: also called VNAR-r2d4-Fc; not shown: Human IgG1 AEF Fc and any hinge or linker at the junction

Tests used:
[1] = target: T1, human TfR-1 on the cell surface (hCMEC/D3 and SY-SH5Y cells) (human, UniProt P02786 1-760); test: flow cytometry on hCMEC/D3 cells, percent positive cells, on ice
T1 construct: whole, on cells; also called cell surface TfR1; cell-surface hTfR1
T1 sequence (P02786 whole entry): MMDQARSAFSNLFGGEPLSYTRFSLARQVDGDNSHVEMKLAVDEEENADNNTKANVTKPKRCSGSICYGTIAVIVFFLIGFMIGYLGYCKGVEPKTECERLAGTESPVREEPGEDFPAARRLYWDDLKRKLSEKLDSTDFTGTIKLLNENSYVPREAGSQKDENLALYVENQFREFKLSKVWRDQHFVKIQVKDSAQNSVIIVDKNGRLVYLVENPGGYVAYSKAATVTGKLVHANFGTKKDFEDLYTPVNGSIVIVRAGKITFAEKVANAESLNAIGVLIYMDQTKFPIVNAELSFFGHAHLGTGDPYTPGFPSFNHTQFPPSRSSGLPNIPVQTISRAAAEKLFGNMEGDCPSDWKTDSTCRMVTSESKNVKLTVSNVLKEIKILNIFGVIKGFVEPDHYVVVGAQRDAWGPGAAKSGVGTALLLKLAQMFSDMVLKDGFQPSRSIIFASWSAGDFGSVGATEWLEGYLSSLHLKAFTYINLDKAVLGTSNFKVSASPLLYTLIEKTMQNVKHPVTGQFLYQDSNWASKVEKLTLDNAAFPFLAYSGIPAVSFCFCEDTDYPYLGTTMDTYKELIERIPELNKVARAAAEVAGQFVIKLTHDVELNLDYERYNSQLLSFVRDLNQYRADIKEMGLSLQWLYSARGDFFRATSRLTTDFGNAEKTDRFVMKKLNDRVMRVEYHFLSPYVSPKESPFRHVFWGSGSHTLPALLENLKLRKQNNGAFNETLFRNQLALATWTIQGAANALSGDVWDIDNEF
Method: FIG. 2. Binding of TXP1 to hCMEC/D3 cells by flow cytometry. Approximately 10,000 cells were incubated with serially diluted TXP1 for 1 hour on ice. TXP1 binding was detected using anti-human IgG Alexa488-conjugated secondary antibody. PI staining was used to exclude dead cells from the analysis. The cells were fixed and analyzed by flow cytometry. 1,000 cells per condition were acquired. Gating of cells stained with secondary antibody only allowed to set a fluorescence threshold for negative signal.
(§1) Flow cytometry. hCMEC/D3 cells (Weksler 2013) were seeded onto V-bottom 96-well plates at a density of 1×10⁴ cells/well. After blocking in PBS containing 10% BSA (FACS buffer) for 20 min on ice, cells were incubated with serial dilutions of TXP1. Cells were stained with propidium iodine (PI; Biolegend) for 20 min on ice, followed by anti-hFc conjugated to Alexa488 diluted 1:300 (Jackson ImmunoResearch) for 30 min on ice. After fixation in 4% PFA for 15 min on ice, the cells were analyzed on a CytoFlex flow cytometer (Beckman Coulter). Gating of cells stained with secondary antibody established the fluorescence threshold for the negative signal. The fluorescence intensity of approximately 1000 cells per condition was measured. Dead or dying cells were excluded from the analysis by propidium iodide staining. EC50 values were calculated using a four parametric non-linear regression model.

HSA = target: T2, HSA (human, UniProt P02768 25-609); test: ELISA, plate coated with HSA, detection with anti-hFc HRP and TMB
T2 construct: Negative control
T2 sequence (P02768 25-609): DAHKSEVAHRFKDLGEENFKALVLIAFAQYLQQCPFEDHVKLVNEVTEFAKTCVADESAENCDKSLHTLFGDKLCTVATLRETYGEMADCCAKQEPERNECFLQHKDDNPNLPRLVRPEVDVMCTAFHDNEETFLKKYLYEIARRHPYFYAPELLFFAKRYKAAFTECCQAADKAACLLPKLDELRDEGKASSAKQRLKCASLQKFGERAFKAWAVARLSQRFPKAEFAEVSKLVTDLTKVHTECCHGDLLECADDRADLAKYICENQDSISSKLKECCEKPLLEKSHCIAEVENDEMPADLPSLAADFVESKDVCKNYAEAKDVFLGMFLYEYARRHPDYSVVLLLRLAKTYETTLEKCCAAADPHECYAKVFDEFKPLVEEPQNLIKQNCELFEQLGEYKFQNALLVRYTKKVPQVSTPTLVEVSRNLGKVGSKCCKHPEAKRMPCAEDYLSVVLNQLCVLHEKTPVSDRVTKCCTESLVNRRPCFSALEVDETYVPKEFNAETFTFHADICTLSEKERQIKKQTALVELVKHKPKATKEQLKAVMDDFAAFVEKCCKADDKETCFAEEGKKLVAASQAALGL
Method: (§2) FIG. 1. Cross-species reactivity of TXP1 assessed by ELISA. Plates were coated with either mouse, human, cynomolgus or rat TfR-1. HSA was used as a negative control. Serial dilutions of TXP1 (a VNAR antibody) were added to the plate and binding was measured by end-point ELISA upon incubation with secondary anti-hFc HRP-conjugated antibodies and visualization with TMB.
(§3) TfR-1 binding ELISA. Nunc MaxiSorp plates were coated with 100 μl of 1 μg/ml of in-house purified recombinant human, mouse, rat and cynomolgus TfR-1 and incubated at 4° C. overnight. Plates were incubated with blocking buffer (2.5% non-fat dry milk in PBST) for 1 h at RT. Serially-diluted TXP1 was mixed with non-fat dry milk in PBST to a final concentration of 2.5% and incubated for 30 min. Blocked TXP1 solutions (100 μl) were transferred to the blocked plates and incubated for 1 hr. Plates were washed with PBST and incubated with anti-hFc HRP-conjugated antibody diluted 1:5,000 (Sigma) in blocking buffer for 30 min. Plates were washed and developed with SureBlue™ TMB substrate, the reaction stopped with 1% HCl and absorbance measured at 450 nm.

recombinant rat TfR-1 = target: T3, recombinant rat TfR-1 (rat, UniProt Q99376 87-761, limits assumed); test: ELISA, plate coated with recombinant rat TfR-1, detection with anti-hFc HRP and TMB
T3 construct: also called rTfR-1
T3 sequence (Q99376 87-761 limits assumed): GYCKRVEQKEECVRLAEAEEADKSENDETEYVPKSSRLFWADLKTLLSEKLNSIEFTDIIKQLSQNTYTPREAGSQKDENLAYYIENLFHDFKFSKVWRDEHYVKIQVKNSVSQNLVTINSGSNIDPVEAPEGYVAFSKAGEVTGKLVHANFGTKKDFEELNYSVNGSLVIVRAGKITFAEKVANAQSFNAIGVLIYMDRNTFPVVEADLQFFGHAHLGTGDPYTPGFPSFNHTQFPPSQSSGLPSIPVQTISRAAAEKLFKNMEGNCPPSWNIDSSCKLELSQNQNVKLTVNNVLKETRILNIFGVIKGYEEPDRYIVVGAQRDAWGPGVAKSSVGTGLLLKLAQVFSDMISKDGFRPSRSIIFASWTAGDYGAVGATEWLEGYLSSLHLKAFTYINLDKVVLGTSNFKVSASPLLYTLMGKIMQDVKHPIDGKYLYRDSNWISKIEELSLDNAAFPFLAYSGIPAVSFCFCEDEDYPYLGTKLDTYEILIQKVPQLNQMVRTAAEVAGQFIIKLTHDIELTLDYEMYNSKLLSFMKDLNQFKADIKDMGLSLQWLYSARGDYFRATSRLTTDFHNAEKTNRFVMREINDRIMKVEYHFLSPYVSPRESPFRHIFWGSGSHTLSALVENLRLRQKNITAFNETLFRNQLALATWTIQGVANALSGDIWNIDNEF
Method: as §2, §3

recombinant mouse TfR-1 = target: T4, recombinant mouse TfR-1 (mouse, UniProt Q62351 89-763, limits assumed); test: ELISA, plate coated with recombinant mouse TfR-1, detection with anti-hFc HRP and TMB
T4 construct: also called mTfR-1
T4 sequence (Q62351 89-763 limits assumed): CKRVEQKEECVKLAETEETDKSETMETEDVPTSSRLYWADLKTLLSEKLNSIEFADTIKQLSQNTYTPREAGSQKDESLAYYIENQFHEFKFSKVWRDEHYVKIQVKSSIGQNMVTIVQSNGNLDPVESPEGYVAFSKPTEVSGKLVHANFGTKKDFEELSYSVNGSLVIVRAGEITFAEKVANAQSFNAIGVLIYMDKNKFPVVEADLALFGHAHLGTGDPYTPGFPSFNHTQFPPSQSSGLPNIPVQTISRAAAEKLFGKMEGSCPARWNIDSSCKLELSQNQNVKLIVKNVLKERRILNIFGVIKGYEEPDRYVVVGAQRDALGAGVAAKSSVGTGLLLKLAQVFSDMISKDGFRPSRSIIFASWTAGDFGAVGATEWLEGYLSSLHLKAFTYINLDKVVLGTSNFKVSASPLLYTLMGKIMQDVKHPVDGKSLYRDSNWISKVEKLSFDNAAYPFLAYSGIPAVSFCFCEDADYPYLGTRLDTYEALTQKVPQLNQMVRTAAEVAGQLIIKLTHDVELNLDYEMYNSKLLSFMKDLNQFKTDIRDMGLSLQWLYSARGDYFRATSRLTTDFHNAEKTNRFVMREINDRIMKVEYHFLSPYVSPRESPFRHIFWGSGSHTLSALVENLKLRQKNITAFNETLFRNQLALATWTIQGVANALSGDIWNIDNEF
Method: as §2, §3

[2] = target: T5, recombinant human TfR-1 (transferrin receptor-1) (human, UniProt P02786 89-760); test: ELISA, plate coated with human TfR-1, anti-hFc HRP, 4-parameter fit; drawn table under the curves
T5 construct: extracellular domain; In-house purified recombinant protein; also called hTfR-1; hTfR1
T5 sequence (P02786 89-760): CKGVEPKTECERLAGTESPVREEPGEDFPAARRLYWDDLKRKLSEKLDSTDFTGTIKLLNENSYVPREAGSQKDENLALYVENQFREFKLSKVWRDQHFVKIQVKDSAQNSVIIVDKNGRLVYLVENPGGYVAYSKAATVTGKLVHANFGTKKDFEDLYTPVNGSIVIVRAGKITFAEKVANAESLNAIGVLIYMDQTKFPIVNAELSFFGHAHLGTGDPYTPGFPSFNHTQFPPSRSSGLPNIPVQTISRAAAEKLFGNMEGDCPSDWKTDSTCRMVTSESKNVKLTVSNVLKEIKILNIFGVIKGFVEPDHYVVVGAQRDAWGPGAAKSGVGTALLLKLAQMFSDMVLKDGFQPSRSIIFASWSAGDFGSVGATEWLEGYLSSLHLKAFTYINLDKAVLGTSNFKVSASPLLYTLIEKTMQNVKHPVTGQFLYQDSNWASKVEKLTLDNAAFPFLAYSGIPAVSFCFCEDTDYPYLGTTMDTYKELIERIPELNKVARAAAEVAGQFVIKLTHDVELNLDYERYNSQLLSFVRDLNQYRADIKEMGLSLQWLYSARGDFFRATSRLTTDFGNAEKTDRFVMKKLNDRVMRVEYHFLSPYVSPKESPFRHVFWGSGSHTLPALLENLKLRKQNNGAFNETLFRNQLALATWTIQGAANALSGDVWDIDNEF
Method: (§4) FIG. 15. Binding activity of TXP1 and deimmunized variants assessed by ELISA. Plates were coated with either human or cynomolgus or rat TfR-1. HSA was used as a negative control. Serial dilutions of TXP1 (a VNAR antibody) or the variants as Fc fusions were added to the plate and binding was measured by end-point ELISA upon incubation with secondary anti-hFc HRP-conjugated antibodies and visualization with TMB.
as §3

[3] = target: T6, recombinant cynomolgus TfR-1 (cynomolgus, UniProt H9EXL1 89-760 (rhesus entry)); test: ELISA, plate coated with cynomolgus TfR-1, anti-hFc HRP, 4-parameter fit; drawn table under the curves
T6 construct: also called cTfR-1; cTfR1
T6 sequence (chain, as listed by the source): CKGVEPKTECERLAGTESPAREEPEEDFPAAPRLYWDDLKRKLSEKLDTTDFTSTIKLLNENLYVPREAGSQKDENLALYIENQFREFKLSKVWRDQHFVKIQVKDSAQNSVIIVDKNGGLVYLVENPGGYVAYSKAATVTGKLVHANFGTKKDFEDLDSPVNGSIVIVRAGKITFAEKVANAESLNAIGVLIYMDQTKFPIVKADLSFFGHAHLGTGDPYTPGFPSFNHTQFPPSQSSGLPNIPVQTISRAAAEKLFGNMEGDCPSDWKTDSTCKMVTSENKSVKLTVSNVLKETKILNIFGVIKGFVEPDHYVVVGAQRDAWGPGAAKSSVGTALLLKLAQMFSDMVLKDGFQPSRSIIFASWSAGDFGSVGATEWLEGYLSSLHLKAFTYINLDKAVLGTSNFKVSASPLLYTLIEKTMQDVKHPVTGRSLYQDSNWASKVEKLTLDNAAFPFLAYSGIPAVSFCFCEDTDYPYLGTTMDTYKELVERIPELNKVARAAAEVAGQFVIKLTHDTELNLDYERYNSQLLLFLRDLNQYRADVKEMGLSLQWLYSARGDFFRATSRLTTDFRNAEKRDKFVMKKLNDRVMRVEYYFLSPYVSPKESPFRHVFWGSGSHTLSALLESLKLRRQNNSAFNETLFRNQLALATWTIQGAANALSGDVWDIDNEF
Method: as §4, §3

[4] = target: T5, recombinant human TfR-1 (transferrin …); test: ELISA on hTfR-1 captured by plate-coated human Tf (receptor already bound to Tf), detection with anti-hFc HRP and TMB
Method: Competition ELISAs. For competition studies, MaxiSorp plates were coated with 100 μl of human Tf, at the concentration of 5 μg/ml overnight at 4° C. Plates were washed with phosphate-buffered saline containing 0.1% Tween20 (PBST) and blocked for 1 h with 2.5% BSA in PBST. Wells were incubated with 50 μl of hTfR-1 at 10 μg/ml for 1 h at RT and washed before adding serially diluted TXP1 and A06 VNAR antibodies for 1 h at RT. Following washing, 100 μl of 1:5,000 anti-hFc HRP-conjugated antibody (Sigma) diluted in 2.5% BSA in PBST was added and incubated for 1 h. Plates were washed and developed with SureBlue™ TMB substrate, the reaction stopped with 1% HCl and absorbance measured at 450 nm.
TXP1 competition with Tf for binding to TfR-1 was assessed by ELISA. Plates coated with Tf were used to capture hTfR-1 before incubation with serial dilutions of TXP1, A06 VNAR antibody or isotype control G12 VNAR antibody. While TXP1 and A06 VNAR antibody bind with similar nM KD in the absence of Tf (Table 5), when TfR-1 was bound to Tf, TXP1 but not the A06 VNAR antibody was still able to bind the receptor (FIG. 4).

[5] = target: T5, recombinant human TfR-1 (transferrin …); test: SPR
[6] = target: T6, recombinant cynomolgus TfR-1; test: SPR
[7] = target: T1, human TfR-1 on the cell surface …; test: flow cytometry on hCMEC/D3 cells, 1 h on ice, binding to cell surface TfR1
Method: as §1, with “Dead or dying cells were excluded from the analysis by propidium iodide staining.” left out
Functional activity of the fully deimmunised variants was assessed using the human endothelial cell line hCMEC/D3 and the human neuronal cell line SY-SH5Y. Binding to hCMEC/D3 cells was assessed by incubation with serial antibody dilutions for 1 h on ice to avoid internalisation. The cells were fixed and binding to cell surface TfR1 was measured by flow cytometry. […] Internalisation via cell-surface hTfR1 was assessed using the hCMEC/D3 and SY-SH5Y cell lines by incubation with the antibodies for 1 hour at 37° C.

Binder | EC50 [1] [nM] | binding result (HSA) | binding result (recombinant rat TfR-1) | binding result (recombinant mouse TfR-1) | EC50 [2] [nM] | EC50 [3] [nM] | EC50 (read off the curve) [4] [nM] | Kd [5] [nM] | koff [5] [s⁻¹] | kon [5] [M⁻¹ s⁻¹] | Kd [6] [nM] | koff [6] [s⁻¹] | kon [6] [M⁻¹ s⁻¹] | EC50 [7] [nM]
B1 | 10.1 | no binding (tested: about 2e-6 M) | no binding (tested: about 2e-6 M) | no binding (tested: about 2e-6 M) | 2.9 | 3.3 | ~10 | – | – | – | – | – | – | –
B2 | – | – | – | – | – | – | – | 3 | 0.00026 | 87000 | 1.7 | 0.00014 | 87000 | 2.1
